In patent US7078174B1, “Screening methods using SOCS box-containing peptides” (The Walter & Eliza Hall Institute of Medical Research, priority 1998, dated 2006):
“Also recorded” adds a separate entry of the source. Square brackets hold non-standard residues; d marks the D form. Ends that are not written are not given here. Peptide text beside a SMILES is read from it. * marks the point of attachment. Biotin = O=C1N[C@H]2[C@H](CS[C@H]2CCCCC(=O)*)N1; Nle = CCCC[C@H](N)C(=O)O

Assays:
[1] = target: T1, elongins B and C (Mus musculus, UniProt P62869+P83940); assay: Affinity purification of SOCS box-binding proteins from M1 cell lysates on GST-SOCS box Sepharose; design: species or system murine; settings: mass spectrometry and Western blot, not seen with GST control
T1 construct: endogenous in cells; host or cells: M1 murine monocytic leukemic cells
Method: DNA fragments encoding the SOCS boxes from mouse SOCS-1 (residues 172–212) and SOCS-3 (residues 186–225) with an N-terminal linker sequence (EGKSSGSGSESKVD) (SEQ ID NO:3) were generated by PCR and cloned into the bacterial expression vector pGEX-2T (9). The GST fusion proteins were purified by affinity chromatography on glutathione Sepharose 4B (Amersham Pharmacia Biotec) and affinity resins were prepared by covalently coupling 1 mg of purified proteins to 1 ml of NHS-activated Sepharose resin (Amersham Pharmacia Biotec). Before use, the affinity resins were washed with elution buffer (0.5% w/v SDS, 50 mM DTT, 50 mM Tris-HCl, pH 8.0 and 150 mM NaCl) and equilibrated in lysis buffer (0.5% w/v Nonidet P-40, 10 mM Tris-HCl, pH 7.5 and 100 mM NaCl).
M1 cells (2×10^10) were lysed on ice for 30 min in 100 ml of lysis buffer supplemented with protease inhibitors (Complete Cocktail tablets; Boehringer Mannheim, Mannheim, Germany), 1 mM PMSF, 1 mM Na3VO4 and 1 mM NaF. The total cell lysate was centrifuged at 15,000 rpm (SS34 rotor) for 15 min at 4° C. and the clarified supernatant pre-incubated with 1 ml of GST-Sepharose resin for 2 h at 4° C. Half the GST-Sepharose-depleted M1 cell lysate was incubated with 1 ml of GST-SOCS-1 SOCS box- and the other half with GST-SOCS-3 SOCS box-Sepharose resin for 2 h at 4° C. […]

[2] = test system: SOCS-3 protein; assay: IL-6-induced expression of endogenous SOCS-3 protein in J774 cells; type: cell-based; settings: LLnL 50 μM, 100 ng/ml murine IL-6, 30–180 min
Method: Mouse macrophage-like J774 cells were grown continuously in DME containing 10% bovine calf serum. The cells were washed once in PBS, twice with DME and starved for 1 h in DME containing 0.1% w/v low-endotoxin bovine serum albumin (BSA; Sigma). The proteasome inhibitor LLnL dissolved in dimethyl sulfoxide (DMSO) or DMSO was added to the cells for 15 min and the cells then stimulated with 100 ng/ml of murine IL-6 for the indicated times.
Proteins were immunoprecipitated with anti-myc (9E10; WEHI) and protein A-Sepharose or anti-FLAG antibody conjugated to Sepharose (KM5-IC7; WEHI) and separated by sodium dodecyl sulphate-polyacrylamide gel electrophoresis (SDS-PAGE) (Biorad, Hercules, Calif.) under reducing conditions. Proteins were then electrophoretically transferred to PVDF-Plus membranes (Micron Separations Inc. WestBorough, Mass.) and Western blotted as described (8).

[3] = target: T1, elongins B and C; assay: Affinity purification from M1 cellular extracts with biotinylated SOCS-1 SOCS box peptide on streptavidin-agarose; type: binding, murine; settings: streptavidin-agarose bound peptide; mass spectrometry
Method: (§1) Following biotinylation, the peptide was reduced by treatment with 5 mM DTT. Typically, peptide was coupled to streptavidin-agarose resin (Pierce immunopure; 1–2 mg streptavidin/mL resin) by incubating equal volumes of resin and 1 mg/mL peptide for 1 h, followed by extensive washing.
(§2) M1 cells were lysed as previously described, except at a concentration of 10^9 cells/mL of lysis buffer. Streptavidin-agarose binding proteins were precleared from lysate by treating overnight at 4° C. with streptavidin-agarose resin (100 μL of resin/mL lysate). SOCS box peptides (SOCS-1, ASB-2 and WSB-2) were solubilized in water at 10 mg/mL, and aliquots of these, or water alone, were added to 350 μL fractions of cleared lysate, followed by incubation for 3 h at 4° C. These lysates were then added to 30 μL of SOCS-1 SOCS box peptide resin and incubated a further 2 h at 4° C. The resin was extensively washed with lysis buffer and bound proteins were eluted with 20 μL of 4×SDS sample buffer. Proteins were separated by SDS-PAGE on a 4–15% reducing gel.

[4] = target: T2, elongin C (Mus musculus, UniProt P83940); assay: Competition of SOCS-1 SOCS box/elongin C interaction in M1 cellular extracts; type: binding, murine; settings: 80 mM competing non-biotinylated SOCS box peptide, SDS-PAGE, silver staining
T2 construct: endogenous in cells; host or cells: M1 murine monocytic leukemic cells (lysate)
Method: as §1, §2

T2 sequence (P83940 whole entry): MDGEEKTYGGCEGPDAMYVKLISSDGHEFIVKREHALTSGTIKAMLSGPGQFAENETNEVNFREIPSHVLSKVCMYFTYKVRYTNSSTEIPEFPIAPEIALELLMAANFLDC
T2 sequence (P62869 whole entry partner): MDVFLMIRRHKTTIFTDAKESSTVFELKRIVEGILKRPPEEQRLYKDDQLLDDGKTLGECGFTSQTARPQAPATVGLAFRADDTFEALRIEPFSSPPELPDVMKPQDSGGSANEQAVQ
T1 sequence (P83940 whole entry): as the sequence (P83940 whole entry) above
T1 sequence (P62869 whole entry): as the sequence (P62869 whole entry partner) above

Row | Molecule | elongins B and C in eluates from affinity resin [1] | competition of elongin C binding to immobilized SOCS-1 SOCS box peptide [4] | further results
1 | GST-SOCS-1 SOCS box: GST fusion protein with SOCS box of mouse SOCS-1 (residues 172–212) and N-terminal linker, coupled to Sepharose (EGKSSGSGSESKVDVRPLQELCRQRIVAAVGRENLARIPLNPVLRDYLSSFPFQI; not fully specified (N-terminus); also: coupled to Sepharose) | both elongins were present in eluates |  | 
2 | CCCC[C@@H](C=O)NC(=O)[C@H](CC(C)C)NC(=O)[C@H](CC(C)C)NC(C)=O [LLnL, N-acetyl-L-leucinyl-L-leucinyl-norleucinal] (Ac-Leu-Leu-[Nle]-aldehyde) |  |  | SOCS-3 protein levels after IL-6 stimulation [2]: continual increase in SOCS-3 protein levels
3 | biotinylated SOCS-1 SOCS box peptide: SOCS-1 SOCS box peptide biotinylated at the amino terminus with sulfosuccinimidobiotin, coupled to streptavidin-agarose (Biotin-LRQRRVRPLQELCRQRIVAAVGRENLARIPLNPVLRDYLSSFPFQI; also: coupled to streptavidin-agarose) |  |  | interacting proteins identified in M1 cellular extracts [3]: identification by mass spectrometry of elongins B and C as interacting proteins
4 | WSB-2 SOCS box peptide: Synthetic peptide fragment of murine WSB-2 corresponding to the SOCS box and five upstream N-terminal residues (TAPRVLSSLKHLCRKALRSFLTTYQVLALPIPKKMKEFLTYRTF) |  | competed for this interaction; also recorded: prevented binding of elongin C to immobilized SOCS-1 SOCS box | 
5 | SOCS-1 SOCS box peptide: Synthetic peptide fragment of murine SOCS-1 corresponding to the SOCS box and five upstream N-terminal residues (LRQRRVRPLQELCRQRIVAAVGRENLARIPLNPVLRDYLSSFPFQI) |  | competed for this interaction; also recorded: prevented binding of elongin C to immobilized SOCS-1 SOCS box | 
6 | GST-SOCS-3 SOCS box: GST fusion protein with SOCS box of mouse SOCS-3 (residues 186–225) and N-terminal linker, coupled to Sepharose (EGKSSGSGSESKVDVATLQHLCRKTVNGHLDSYEKVTQLPGPIREFLDQYDAPL; not fully specified (N-terminus); also: coupled to Sepharose) | both elongins were present in eluates |  | 
